From PMC3176292, “Mutations in Protein-Binding Hot-Spots on the Hub Protein Smad3 Differentially Affect Its Protein Interactions and Smad3-Regulated Gene Expression” (PLoS ONE, 2011)

T1: Flag-Smad4, full length (UniProt Q13485 1-552)
T1 construct: Smad4; plasmid pCMV5-Flag-Smad4 (from J. Massagué); also called Smad4 FL; source: HEK-293, transfected, in lysate
T1 sequence (looked up): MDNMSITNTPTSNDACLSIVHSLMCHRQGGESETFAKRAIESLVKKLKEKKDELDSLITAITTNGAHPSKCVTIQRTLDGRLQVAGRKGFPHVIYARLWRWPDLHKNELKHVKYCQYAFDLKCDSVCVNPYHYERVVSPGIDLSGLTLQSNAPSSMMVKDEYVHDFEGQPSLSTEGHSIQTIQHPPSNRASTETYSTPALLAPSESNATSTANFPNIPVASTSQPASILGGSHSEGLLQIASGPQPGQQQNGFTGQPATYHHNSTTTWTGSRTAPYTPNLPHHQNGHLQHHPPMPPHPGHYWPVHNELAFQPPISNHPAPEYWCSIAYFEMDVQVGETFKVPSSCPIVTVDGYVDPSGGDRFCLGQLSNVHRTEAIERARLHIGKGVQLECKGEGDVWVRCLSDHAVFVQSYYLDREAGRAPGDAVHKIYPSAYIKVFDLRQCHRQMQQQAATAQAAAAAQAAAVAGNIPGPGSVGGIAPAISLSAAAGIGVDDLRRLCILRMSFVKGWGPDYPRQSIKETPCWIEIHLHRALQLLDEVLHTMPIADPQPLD

T2: Flag-SkiW274E, full length (UniProt P12755 1-728, W274E)
T2 construct: plasmid pCMV5b-Flag-SkiW274E (from K. Luo); also called SkiW274E FL; SKI274E; source: HEK-293, transfected, in lysate
T2 sequence (looked up): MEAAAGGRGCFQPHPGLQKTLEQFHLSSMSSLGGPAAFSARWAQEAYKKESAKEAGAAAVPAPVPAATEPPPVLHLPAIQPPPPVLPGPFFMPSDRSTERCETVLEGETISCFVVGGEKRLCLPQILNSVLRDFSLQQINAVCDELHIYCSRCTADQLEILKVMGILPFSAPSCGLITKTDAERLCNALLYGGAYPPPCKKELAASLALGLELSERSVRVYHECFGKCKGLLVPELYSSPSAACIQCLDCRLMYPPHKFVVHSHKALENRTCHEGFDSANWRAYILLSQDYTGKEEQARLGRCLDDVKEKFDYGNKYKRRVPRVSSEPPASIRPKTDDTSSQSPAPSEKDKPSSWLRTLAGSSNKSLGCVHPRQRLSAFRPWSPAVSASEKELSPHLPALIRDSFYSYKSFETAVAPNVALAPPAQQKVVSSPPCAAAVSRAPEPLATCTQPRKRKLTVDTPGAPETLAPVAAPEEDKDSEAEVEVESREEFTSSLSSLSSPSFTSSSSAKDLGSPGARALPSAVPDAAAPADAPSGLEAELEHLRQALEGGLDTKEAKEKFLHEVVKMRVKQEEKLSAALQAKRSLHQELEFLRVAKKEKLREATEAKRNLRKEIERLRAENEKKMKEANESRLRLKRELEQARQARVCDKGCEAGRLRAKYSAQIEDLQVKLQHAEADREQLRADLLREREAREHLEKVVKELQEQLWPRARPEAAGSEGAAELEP

T3: SARA Smad-binding domain (amino acids 665–721) on the 3xFlag-thioredoxin scaffold (UniProt O95405 767-823)
T3 construct: SARA, amino acids 665–721; cloned into the unique RsrII site of pCI-3xFLAG-Trx; also called SARA aa665–721; TrxSARA; source: HEK-293, transfected, in lysate
T3 sequence (looked up): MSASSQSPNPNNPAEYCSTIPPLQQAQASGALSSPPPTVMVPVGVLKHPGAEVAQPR


Assays:
Assay in all cases: co-IP; LUMIER: Renilla luciferase-Smad3 and Flag-tagged partner co-expressed with constitutively active Alk5 in HEK-293; Flag protein captured from cleared lysate (TNE: 10 mM Tris-HCl pH 7.8, 150 mM NaCl, 1 mM EDTA, 1% Igepal CA-630) on anti-Flag 96-well plates, 2 h at 4 °C; co-precipitated Renilla luciferase activity, TrxGA background subtracted, percent of wild-type Smad3
Details in all cases: partners not purified
[1] = molecular target: T4, Smurf2 Smad-binding domain (amino acids 252–330) on the Flag-thioredoxin scaffold (UniProt Q9HAU4 252-330)
T4 construct: Smurf2, amino acids 252–330; also called Smurf2 aa252–330; TrxSmurf2; source: HEK-293, transfected, in lysate

Flag-Smad4, full length = molecular target: T1, Flag-Smad4, full length
[2] = molecular target: T2, Flag-SkiW274E, full length
[3] = molecular target: T3, SARA Smad-binding domain (amino acids …)

T4 sequence (Q9HAU4 252-330): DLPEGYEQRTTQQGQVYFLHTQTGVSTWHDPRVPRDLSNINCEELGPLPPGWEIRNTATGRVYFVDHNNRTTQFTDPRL

Binder	percent binding relative to wild-type Smad3 [1] [%]	percent binding relative to wild-type Smad3 (Flag-Smad4, full length) [%]	percent binding relative to wild-type Smad3 [2] [%]	percent binding relative to wild-type Smad3 [3] [%]
Renilla luciferase-Smad3 C338A (natural protein, UniProt P84022 1-425, looked up, Smad3; source: HEK-293, transfected together with constitutively active Alk5, in lysate) MSSILPFTPPIVKRLLGWKKGEQNGQEEKWCEKAVKSLVKKLKKTGQLDELEKAITTQNVNTKCITIPRSLDGRLQVSHRKGLPHVIYCRLWRWPDLHSHHELRAMELCEFAFNMKKDEVCVNPYHYQRVETPVLPPVLVPRHTEIPAEFPPLDDYSHSIPENTNFPAGIEPQSNIPETPPPGYLSEDGETSDHQMNHSMDAGSPNLSPNPMSPAHNNLDLQPVTYCEPAFWCSISYYELNQRVGETFHASQPSMTVDGFTDPSNSERFCLGLLSNVNRNAAVELTRRHIGRGVRLYYIGGEVFAECLSDSAIFVQSPNCNQRYGWHPATVCKIPPGANLKIFNNQEFAALLAQSVNQGFEAVYQLTRMCTIRMSFVKGWGAEYRRQTVTSTPCWIELHLNGPLQWLDKVLTQMGSPSIRCSSVS	153	125	111	94
Renilla luciferase-Smad3 E267A (natural protein, UniProt P84022 1-425, looked up, Smad3; source: HEK-293, transfected together with constitutively active Alk5, in lysate) MSSILPFTPPIVKRLLGWKKGEQNGQEEKWCEKAVKSLVKKLKKTGQLDELEKAITTQNVNTKCITIPRSLDGRLQVSHRKGLPHVIYCRLWRWPDLHSHHELRAMELCEFAFNMKKDEVCVNPYHYQRVETPVLPPVLVPRHTEIPAEFPPLDDYSHSIPENTNFPAGIEPQSNIPETPPPGYLSEDGETSDHQMNHSMDAGSPNLSPNPMSPAHNNLDLQPVTYCEPAFWCSISYYELNQRVGETFHASQPSMTVDGFTDPSNSARFCLGLLSNVNRNAAVELTRRHIGRGVRLYYIGGEVFAECLSDSAIFVQSPNCNQRYGWHPATVCKIPPGCNLKIFNNQEFAALLAQSVNQGFEAVYQLTRMCTIRMSFVKGWGAEYRRQTVTSTPCWIELHLNGPLQWLDKVLTQMGSPSIRCSSVS	379	458	137	81
Renilla luciferase-Smad3 L340A (natural protein, UniProt P84022 1-425, looked up, Smad3; source: HEK-293, transfected together with constitutively active Alk5, in lysate) MSSILPFTPPIVKRLLGWKKGEQNGQEEKWCEKAVKSLVKKLKKTGQLDELEKAITTQNVNTKCITIPRSLDGRLQVSHRKGLPHVIYCRLWRWPDLHSHHELRAMELCEFAFNMKKDEVCVNPYHYQRVETPVLPPVLVPRHTEIPAEFPPLDDYSHSIPENTNFPAGIEPQSNIPETPPPGYLSEDGETSDHQMNHSMDAGSPNLSPNPMSPAHNNLDLQPVTYCEPAFWCSISYYELNQRVGETFHASQPSMTVDGFTDPSNSERFCLGLLSNVNRNAAVELTRRHIGRGVRLYYIGGEVFAECLSDSAIFVQSPNCNQRYGWHPATVCKIPPGCNAKIFNNQEFAALLAQSVNQGFEAVYQLTRMCTIRMSFVKGWGAEYRRQTVTSTPCWIELHLNGPLQWLDKVLTQMGSPSIRCSSVS	259	181	57	12
Renilla luciferase-Smad3 K341A (natural protein, UniProt P84022 1-425, looked up, Smad3; source: HEK-293, transfected together with constitutively active Alk5, in lysate) MSSILPFTPPIVKRLLGWKKGEQNGQEEKWCEKAVKSLVKKLKKTGQLDELEKAITTQNVNTKCITIPRSLDGRLQVSHRKGLPHVIYCRLWRWPDLHSHHELRAMELCEFAFNMKKDEVCVNPYHYQRVETPVLPPVLVPRHTEIPAEFPPLDDYSHSIPENTNFPAGIEPQSNIPETPPPGYLSEDGETSDHQMNHSMDAGSPNLSPNPMSPAHNNLDLQPVTYCEPAFWCSISYYELNQRVGETFHASQPSMTVDGFTDPSNSERFCLGLLSNVNRNAAVELTRRHIGRGVRLYYIGGEVFAECLSDSAIFVQSPNCNQRYGWHPATVCKIPPGCNLAIFNNQEFAALLAQSVNQGFEAVYQLTRMCTIRMSFVKGWGAEYRRQTVTSTPCWIELHLNGPLQWLDKVLTQMGSPSIRCSSVS	130	275	55	4
Renilla luciferase-Smad3 Y297A (natural protein, UniProt P84022 1-425, looked up, Smad3; source: HEK-293, transfected together with constitutively active Alk5, in lysate) MSSILPFTPPIVKRLLGWKKGEQNGQEEKWCEKAVKSLVKKLKKTGQLDELEKAITTQNVNTKCITIPRSLDGRLQVSHRKGLPHVIYCRLWRWPDLHSHHELRAMELCEFAFNMKKDEVCVNPYHYQRVETPVLPPVLVPRHTEIPAEFPPLDDYSHSIPENTNFPAGIEPQSNIPETPPPGYLSEDGETSDHQMNHSMDAGSPNLSPNPMSPAHNNLDLQPVTYCEPAFWCSISYYELNQRVGETFHASQPSMTVDGFTDPSNSERFCLGLLSNVNRNAAVELTRRHIGRGVRLAYIGGEVFAECLSDSAIFVQSPNCNQRYGWHPATVCKIPPGCNLKIFNNQEFAALLAQSVNQGFEAVYQLTRMCTIRMSFVKGWGAEYRRQTVTSTPCWIELHLNGPLQWLDKVLTQMGSPSIRCSSVS	–	–	29	–
Renilla luciferase-Smad3 P335A/P336A (natural protein, UniProt P84022 1-425, looked up, Smad3; source: HEK-293, transfected together with constitutively active Alk5, in lysate) MSSILPFTPPIVKRLLGWKKGEQNGQEEKWCEKAVKSLVKKLKKTGQLDELEKAITTQNVNTKCITIPRSLDGRLQVSHRKGLPHVIYCRLWRWPDLHSHHELRAMELCEFAFNMKKDEVCVNPYHYQRVETPVLPPVLVPRHTEIPAEFPPLDDYSHSIPENTNFPAGIEPQSNIPETPPPGYLSEDGETSDHQMNHSMDAGSPNLSPNPMSPAHNNLDLQPVTYCEPAFWCSISYYELNQRVGETFHASQPSMTVDGFTDPSNSERFCLGLLSNVNRNAAVELTRRHIGRGVRLYYIGGEVFAECLSDSAIFVQSPNCNQRYGWHPATVCKIAAGCNLKIFNNQEFAALLAQSVNQGFEAVYQLTRMCTIRMSFVKGWGAEYRRQTVTSTPCWIELHLNGPLQWLDKVLTQMGSPSIRCSSVS	255	309	118	2
